This note sets out measurements from US20120283194.

For series [1], the target named is GST:Gli1 fragment, zinc finger DNA binding region (UniProt P08151).
Chain of GST:Gli1 fragment, zinc finger DNA binding region (P08151 235-387): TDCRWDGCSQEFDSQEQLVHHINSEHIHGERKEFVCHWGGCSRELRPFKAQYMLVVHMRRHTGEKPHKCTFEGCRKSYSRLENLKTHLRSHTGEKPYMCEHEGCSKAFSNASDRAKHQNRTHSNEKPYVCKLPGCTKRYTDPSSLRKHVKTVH

Chain of GST:Gli1 (P08151 whole entry): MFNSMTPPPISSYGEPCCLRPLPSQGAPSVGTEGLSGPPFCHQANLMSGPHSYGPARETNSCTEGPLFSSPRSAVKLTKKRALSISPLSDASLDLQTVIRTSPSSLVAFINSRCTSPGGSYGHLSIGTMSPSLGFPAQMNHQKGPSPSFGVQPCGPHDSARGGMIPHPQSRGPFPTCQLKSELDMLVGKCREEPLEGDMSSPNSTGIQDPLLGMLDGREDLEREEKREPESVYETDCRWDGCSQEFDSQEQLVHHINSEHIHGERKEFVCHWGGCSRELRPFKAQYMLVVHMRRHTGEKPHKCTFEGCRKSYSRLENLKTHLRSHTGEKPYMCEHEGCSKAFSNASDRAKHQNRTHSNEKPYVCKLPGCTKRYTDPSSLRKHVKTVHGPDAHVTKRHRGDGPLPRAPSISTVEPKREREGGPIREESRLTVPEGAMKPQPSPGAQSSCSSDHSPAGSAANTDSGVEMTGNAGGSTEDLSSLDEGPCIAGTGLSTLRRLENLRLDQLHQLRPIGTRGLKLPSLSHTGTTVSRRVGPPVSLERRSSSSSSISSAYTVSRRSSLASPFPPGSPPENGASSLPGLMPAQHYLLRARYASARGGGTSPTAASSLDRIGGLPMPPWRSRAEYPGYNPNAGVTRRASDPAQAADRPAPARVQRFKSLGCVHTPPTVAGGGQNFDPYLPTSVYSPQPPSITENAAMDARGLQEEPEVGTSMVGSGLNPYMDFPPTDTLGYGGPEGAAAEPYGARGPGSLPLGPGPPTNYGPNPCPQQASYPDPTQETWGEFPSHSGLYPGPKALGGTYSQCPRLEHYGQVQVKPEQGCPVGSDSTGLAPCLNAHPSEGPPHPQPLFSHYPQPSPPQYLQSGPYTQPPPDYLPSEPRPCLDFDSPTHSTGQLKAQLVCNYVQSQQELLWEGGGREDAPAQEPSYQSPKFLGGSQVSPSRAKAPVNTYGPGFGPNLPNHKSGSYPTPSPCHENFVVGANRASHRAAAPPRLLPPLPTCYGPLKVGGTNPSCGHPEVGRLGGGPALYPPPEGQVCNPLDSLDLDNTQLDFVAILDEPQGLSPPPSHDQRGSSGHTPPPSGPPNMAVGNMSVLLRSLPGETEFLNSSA

B1: recombinant HIS:aPKC (enzyme, UniProt P41743 2-596, looked up, species assumed)
Protein kinase C iota type: PTQRDSSTMSHTVAGGGSGDHSHQVRVKAYYRGDIMITHFEPSISFEGLCNEVRDMCSFDNEQLFTMKWIDEEGDPCTVSSQLELEEAFRLYELNKDSELLIHVFPCVPERPGMPCPGEDKSIYRRGARRWRKLYCANGHTFQAKRFNRRAHCAICTDRIWGLGRQGYKCINCKLLVHKKCHKLVTIECGRHSLPQEPVMPMDQSSMHSDHAQTVIPYNPSSHESLDQVGEEKEAMNTRESGKASSSLGLQDFDLLRVIGRGSYAKVLLVRLKKTDRIYAMKVVKKELVNDDEDIDWVQTEKHVFEQASNHPFLVGLHSCFQTESRLFFVIEYVNGGDLMFHMQRQRKLPEEHARFYSAEISLALNYLHERGIIYRDLKLDNVLLDSEGHIKLTDYGMCKEGLRPGDTTSTFCGTPNYIAPEILRGEDYGFSVDWWALGVLMFEMMAGRSPFDIVGSSDNPDQNTEDYLFQVILEKQIRIPRSLSVKAASVLKSFLNKDPKERLGCHPQTGFADIQGHPFFRNVDWDMMEQKQVVPPFKPNISGEFGLDNFDSQFTNEPVQLTPDDDDIVRKIDQSEFEGFEYINPLLMSAEECV
modifications: His tag
As to B1, the “in vitro kinase reaction ([g-32P]ATP, SDS-PAGE, phosphor screen)” value in the series on GST:Gli1 is listed as “aPKC phosphorylates Gli1 (FIG. 3i)”. Also, in series [1], the “in vitro kinase reaction” value was “aPKC phosphorylates recombinantly expressed human Gli1 DNA-binding domain” and the “in vitro kinase reaction ([g-32P]ATP, SDS-PAGE, phosphor screen)” value is listed as “with the majority of the phosphorylation occurring in the zinc finger DNA binding region of Gli1”.
